# Target: T1, recombinant COMA (Ctf19-Okp1-Mcm21-Ame1) inner kinetochore sub-complex (budding yeast (S. cerevisiae), UniProt P53298 1-406; P38313 1-324; Q02732 1-369; Q06675 1-368)
# T1 construct: Okp1, budding yeast, essential COMA component; His-Okp1 printed as 49 kDa; Ame1, budding yeast, essential COMA component; printed as 37 kDa; Ctf19, budding yeast, non-essential COMA component; 'coding regions' cloned; printed as 43 kDa; Mcm21, budding yeast, non-essential COMA component; also called COMA components; source: E. coli RosettaGami2(DE3)pLysS, four subunits co-expressed, purified …
# Test: pull-down; GST fusion proteins incubated with purified COMA in 50 mM HEPES-NaOH pH 7.4, 150 mM NaCl, 5% glycerol, 0.05% Igepal, 2 mM DTT, 0.5 mM EDTA, 20 min at 4°C, then 1 h on GST-Trap Agarose at 4°C, three washes; Coomassie blue staining, anti-His western blot and mass spectrometry
# Details: both partners purified
# T1 sequence (P53298 whole entry, chain 1 of 4): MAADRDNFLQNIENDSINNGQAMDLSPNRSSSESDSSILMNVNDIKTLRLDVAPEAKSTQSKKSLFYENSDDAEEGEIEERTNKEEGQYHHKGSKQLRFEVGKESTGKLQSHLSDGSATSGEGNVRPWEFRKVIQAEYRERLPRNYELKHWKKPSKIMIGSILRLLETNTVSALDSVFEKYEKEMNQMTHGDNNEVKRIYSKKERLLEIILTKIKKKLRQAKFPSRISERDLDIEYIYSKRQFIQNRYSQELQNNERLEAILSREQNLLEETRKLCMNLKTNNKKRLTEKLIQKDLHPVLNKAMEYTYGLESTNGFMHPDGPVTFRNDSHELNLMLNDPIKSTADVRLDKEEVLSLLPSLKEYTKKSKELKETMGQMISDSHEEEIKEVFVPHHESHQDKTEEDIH
# T1 sequence (P38313 whole entry, chain 2 of 4): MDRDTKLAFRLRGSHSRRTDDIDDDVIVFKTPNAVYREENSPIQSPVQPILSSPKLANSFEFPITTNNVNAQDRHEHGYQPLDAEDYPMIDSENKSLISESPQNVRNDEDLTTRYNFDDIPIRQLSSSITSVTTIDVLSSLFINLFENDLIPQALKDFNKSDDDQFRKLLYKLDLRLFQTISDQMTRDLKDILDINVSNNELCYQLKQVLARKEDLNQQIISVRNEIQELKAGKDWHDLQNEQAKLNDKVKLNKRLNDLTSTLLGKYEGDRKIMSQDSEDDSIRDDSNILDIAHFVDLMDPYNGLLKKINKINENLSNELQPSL
# T1 sequence (Q02732 whole entry, chain 3 of 4): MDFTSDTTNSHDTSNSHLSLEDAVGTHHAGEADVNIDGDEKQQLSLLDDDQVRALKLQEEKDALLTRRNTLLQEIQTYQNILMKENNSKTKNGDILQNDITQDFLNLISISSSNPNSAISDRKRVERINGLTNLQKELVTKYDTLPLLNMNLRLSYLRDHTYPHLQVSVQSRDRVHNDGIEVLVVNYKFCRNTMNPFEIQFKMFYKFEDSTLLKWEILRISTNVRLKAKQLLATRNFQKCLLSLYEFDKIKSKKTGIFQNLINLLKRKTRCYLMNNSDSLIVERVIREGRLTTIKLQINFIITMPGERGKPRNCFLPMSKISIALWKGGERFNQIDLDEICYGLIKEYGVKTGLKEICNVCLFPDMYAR
# T1 sequence (Q06675 whole entry, chain 4 of 4): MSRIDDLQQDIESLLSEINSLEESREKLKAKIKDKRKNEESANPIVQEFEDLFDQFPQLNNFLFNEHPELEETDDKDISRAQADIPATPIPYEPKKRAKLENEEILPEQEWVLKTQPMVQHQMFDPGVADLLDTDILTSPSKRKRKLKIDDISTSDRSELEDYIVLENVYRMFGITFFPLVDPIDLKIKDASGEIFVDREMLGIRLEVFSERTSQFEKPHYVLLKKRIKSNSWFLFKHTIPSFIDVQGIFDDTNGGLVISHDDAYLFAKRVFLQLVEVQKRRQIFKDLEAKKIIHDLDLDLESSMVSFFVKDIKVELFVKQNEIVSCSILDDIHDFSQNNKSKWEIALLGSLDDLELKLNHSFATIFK
row,binding result,Binder
1,binds,"GST-Sli15 (1-401 aa) (domain or fragment, budding yeast (S. cerevisiae), UniProt P38283 1-401, looked up, Printed size 72 kDa; source: E. coli RosettaGami2, purified (GSTrap FF, Superdex 200)) MDWAIKAARKKTQRKPGSTRSIIETLDDLNNLTTDAHSEINQRLYESSEWLRNNVYMNTLKYEDKKMEESLISPENTHNKMDVEFPKMKGEYELSNSQNDAAKDVTKTPRNGLHNDKSITPKSLRRKEVTEGMNRFSIHDTNKSPVEPLNSVKVDANESEKSSPWSPYKVEKVLRESSKTSESPINTKRFDNQTWAAKEEMENEPILQALKKAESVKVKPPPNSGIARSQRRSNMFVPLPNKDPLIIQHIPPTKSSGSIPKVRTVKESPIAFKKKSTINSPAIRAVENSDTAGSTKASSVFDRLSSIPTKSFENKISRGNVGHKYSSSSIDLTGSPMKKVSQKFKSINSTDTDMQEALRDIFSVKNKITKNNSPKGKNSRKSSIPRFDKTSLKLTTHKKLA"
2,binds,"GST-Sli15 (393-698 aa) (domain or fragment, budding yeast (S. cerevisiae), UniProt P38283 393-698, looked up, Sli15 (yeast INCENP), budding yeast, residues 393-698; Printed size 60 kDa; also called pGEX6P-1-GST-SLI15 (393-698); source: E. coli RosettaGami2, purified (GSTrap FF, Superdex 200)) KLTTHKKLAIIAEQKKKSKHSSDVHKTGSRPHSISPTKISVDSSSPSKEVKNYYQSPVRGYLRPTKASISPNKNKNLTTSQTPHRLKIKEKTLRKLSPNIADISKPESRKSKNYRLTNLQLLPPAEAERDDLKKKFDKRLSGIMRSQQEHHRRKQEKQKRMSHLEQDLKKQTSFSNDYKDIRLKESLAPFDNHVRDTINKNTAFSTDNILATINTVDHREIIGNVTPKIASVNDSLPEINTDSEDEASVTLAAWAKSPYLQEQLIRQQDINPQTIFGPIPPLHTDEIFPNPRLNRLKPRQIVPKRS"

# Reference: article PMC6509284, “Aurora B-INCENP Localization at Centromeres/Inner Kinetochores Is Required for Chromosome Bi-orientation in Budding Yeast” (Current Biology, 2019)
